Reference: article PMC2199741

Target: biotinylated peptide comprising the NH2-terminal 73 amino acids of GM130 (N73pep) (UniProt Q62839)
Experiment: pull-down

percent of p115 depleted from cytosol: > 95%
B1: p115, vesicle tethering protein (natural protein)
chain: MNFLRGVMGGQSAGPQHTEAETIQKLCDRVASSTLLDDRRNAVRALKSLSKKYRLEVGIQAMEHLIHVLQTDRSDSEIIAYALDTLYNIISNDEEEEVEENSTRQSEDLGSQFTEIFIKQPENVTLLLSLLEEFDFHVRWPGVRLLTSLLKQLGPPVQQIILVSPMGVSKLMDLLADSREIIRNDGVLLLQALTRSNGAIQKIVAFENAFERLLDIITEEGNSDGGIVVEDCLILLQNLLKNNNSNQNFFKEGSYIQRMKAWFEVGDENPGWSAQKVTNLHLMLQLVRVLVSPTNPPGATSSCQKAMFQCGLLQQLCTILMATGIPADILTETINTVSEVIRGCQVNQDYFASVNAPSNPPRPAIVVLLMSMVNERQPFVLRCAVLYCFQCFLYKNEKGQGEIVATLLPSTIDATGNSVSAGQLLCGGLFSTDSLSNWCAAVALAHALQGNATQKEQLLRVQLATSIGNPPVSLLQQCTNILSQGSKIQTRVGLLMLLCTWLSNCPIAVTHFLHNSANVPFLTGQIAENLGEEEQLVQGLCALLLGISIYFNDNSLENYTKEKLKQLIEKRIGKENYIEKLGFISKHELYSRASQKPQPNFPSPEYMIFDHEFTKLVKELEGVITKAIYKSSEEDKKEEEVKKTLEQHDNIVTHYKNMIREQDLQLEELKQQVSTLKCQNEQLQTAVTQQASQIQQHKDQYNLLKVQLGKDNHHQGSHSDGAQVNGIQPEEISRLREEIEELRSHQVLLQSQLAEKDTVIENLRSSQVSGMSEQALATCSPRDAEQVAELKQELSALKSQLCSQSLEITRLQTENSELQQRAETLAKSVPVEGESELVTAAKTTDVEGRLSALLQETKELKNEIKALSEERTAIQKQLDSSNSTIAILQTEKDKLYLEVTDSKKEQDDLLVLLADQDQKILSLKSKLKDLGHPVEEEDESGDQEDDDDELDDGDRDQDI
